B1: proMdUFGT W5 (dsDNA)
DNA 1: TTTTTTGCAACAAATTACCTTTGACTAACAAAACAAGGATATTTCT
DNA 2: AGAAATATCCTTGTTTTGTTAGTCAAAGGTAATTTGTTGCAAAAAA
B2: proMdUFGT W5 mutant (dsDNA)
DNA 1: TTTTTTGCAACAAATTACCTTTTCCTAACAAAACAAGGATATTTCT
DNA 2: AGAAATATCCTTGTTTTGTTAGGAAAAGGTAATTTGTTGCAAAAAA
B3: proMdMYB10 W2 (dsDNA)
DNA 1: TGATAAAGGTATCTTATGGTGGTCAAAGATGTGTGTTGTAACTAGT
DNA 2: ACTAGTTACAACACACATCTTTGACCACCATAAGATACCTTTATCA
B4: proMdMYB10 W2 mutant (dsDNA)
DNA 1: TGATAAAGGTATCTTATGGTGGGAAAAGATGTGTGTTGTAACTAGT
DNA 2: ACTAGTTACAACACACATCTTTTCCCACCATAAGATACCTTTATCA
B5: proMdF3'5'H W2 (dsDNA)
DNA 1: TAAATAGTATCTAACGAAAATTGACCGCACGATATACAATGAACGA
DNA 2: TCGTTCATTGTATATCGTGCGGTCAATTTTCGTTAGATACTATTTA
B6: proMdF3'5'H W2 mutant (dsDNA)
DNA 1: TAAATAGTATCTAACGAAAATTTCCCGCACGATATACAATGAACGA
DNA 2: TCGTTCATTGTATATCGTGCGGGAAATTTTCGTTAGATACTATTTA
B7: proMdF3'5'H W3 (dsDNA)
DNA 1: TCACTCATATAGGTAAACTTTGTCAAGGATGTTCATGTAATTATAA
DNA 2: TTATAATTACATGAACATCCTTGACAAAGTTTACCTATATGAGTGA
B8: proMdF3'5'H W3 mutant (dsDNA)
DNA 1: TCACTCATATAGGTAAACTTTGGAAAGGATGTTCATGTAATTATAA
DNA 2: TTATAATTACATGAACATCCTTTCCAAAGTTTACCTATATGAGTGA

In the series the target is MdWRKY10 (Malus domestica, UniProt D9ZJE9 1-528). The experiment in a line: EMSA; EMSA with LightShift chemiluminescent kit (Thermo) per manufacturer; buffer, pH and temperature not stated. To be noted: protein: recombinant; tags: His (pET-32a(+) vector); label: 3' biotin; blunt. For orientation: A gel shift assay detects complexes by their altered migration in electrophoresis.
Chain of MdWRKY10 (D9ZJE9 entry or part of it): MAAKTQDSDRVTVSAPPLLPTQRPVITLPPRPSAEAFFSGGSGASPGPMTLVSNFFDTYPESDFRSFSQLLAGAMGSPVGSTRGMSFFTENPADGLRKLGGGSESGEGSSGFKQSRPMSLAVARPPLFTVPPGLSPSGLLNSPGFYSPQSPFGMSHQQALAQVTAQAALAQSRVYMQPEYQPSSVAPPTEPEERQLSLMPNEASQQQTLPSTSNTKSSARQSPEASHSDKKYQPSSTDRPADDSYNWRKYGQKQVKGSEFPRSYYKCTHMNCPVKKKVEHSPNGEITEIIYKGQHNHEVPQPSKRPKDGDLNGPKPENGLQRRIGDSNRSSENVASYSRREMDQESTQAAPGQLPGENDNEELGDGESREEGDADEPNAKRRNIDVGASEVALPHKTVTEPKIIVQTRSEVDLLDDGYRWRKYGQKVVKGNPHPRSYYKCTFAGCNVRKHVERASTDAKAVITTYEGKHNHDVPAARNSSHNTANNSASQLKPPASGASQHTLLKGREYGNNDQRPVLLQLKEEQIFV
Consider B1, for which the binding result is given as “binds”.

For the molecule B2, the binding result is given as “no binding”.

Turning to B3, the binding result is given as “binds”.

On to B4, for which the binding result is listed as “no binding”.

Turning to B5, the binding result is “binds”.

Consider B6, for which the binding result is reported as “no binding”.

As for B7, the binding result was “binds”.

In the case of B8, the binding result is “no binding”.

The values above are taken from paper PMC11321683, “A Functional InDel in the WRKY10 Promoter Controls the Degree of Flesh Red Pigmentation in Apple”.
